B1: Myotubularin-related protein 9 (Homo sapiens), Q96QG7 (parent)
chain: MEFAELIKTPRVDNVVLHRPFYPAVEGTLCLTGHHLILSSRQDNTEELWLLHSNIDAIDKRFVGSLGTIIIKCKDFRIIQLDIPGMEECLNIASSIEALSTLDSITLMYPFFYRPMFEVIEDGWHSFLPEQEFELYSSATSEWRLSYVNKEFAVCPSYPPIVTVPKSIDDEALRKVATFRHGGRFPVLSYYHKKNGMVIMRSGQPLTGTNGRRCKEDEKLINATLRAGKRGYIIDTRSLNVAQQTRAKGGGFEQEAHYPQWRRIHKSIERYHILQESLIKLVEACNDQTHNMDRWLSKLEASNWLTHIKEILTTACLAAQCIDREGASILIHGTEGTDSTLQVTSLAQIILEPRSRTIRGFEALIEREWLQAGHPFQQRCAQSAYCNTKQKWEAPVFLLFLDCVWQILRQFPCSFEFNENFLIMLFEHAYASQFGTFLGNNESERCKLKLQQKTMSLWSWVNQPSELSKFTNPLFEANNLVIWPSVAPQSLPLWEGIFLRWNRSSKYLDEAYEEMVNIIEYNKELQAKVNILRRQLAELETEDGMQESP
partner: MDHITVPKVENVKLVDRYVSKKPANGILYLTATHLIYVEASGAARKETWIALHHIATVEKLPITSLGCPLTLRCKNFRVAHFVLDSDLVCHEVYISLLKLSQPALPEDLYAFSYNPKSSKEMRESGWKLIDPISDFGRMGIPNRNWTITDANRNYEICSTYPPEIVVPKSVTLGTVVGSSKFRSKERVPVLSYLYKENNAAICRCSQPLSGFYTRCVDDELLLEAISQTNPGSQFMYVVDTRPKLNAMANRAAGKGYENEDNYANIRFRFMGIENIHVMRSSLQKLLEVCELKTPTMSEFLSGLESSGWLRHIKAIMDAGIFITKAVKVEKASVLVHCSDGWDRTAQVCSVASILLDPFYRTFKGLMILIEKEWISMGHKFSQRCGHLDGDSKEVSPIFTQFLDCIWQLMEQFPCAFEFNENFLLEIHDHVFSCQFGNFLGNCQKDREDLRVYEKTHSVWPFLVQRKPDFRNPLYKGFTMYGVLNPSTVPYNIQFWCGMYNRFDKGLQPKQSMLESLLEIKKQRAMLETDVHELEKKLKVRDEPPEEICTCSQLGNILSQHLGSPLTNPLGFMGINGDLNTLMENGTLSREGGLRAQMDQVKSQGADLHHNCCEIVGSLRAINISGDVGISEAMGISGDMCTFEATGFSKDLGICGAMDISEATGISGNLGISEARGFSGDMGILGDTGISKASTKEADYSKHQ
B2: Atos homolog protein B (Homo sapiens), Q7L5A3 (parent)
chain: MRHVQAEPSPSSEPEAGPSQPPVRQGALQGGLLMGYSPAGGATSPGVYQVSIFSPPAGTSEPHRALKRQAPSTEGPRELKRGPGLGAREGLPPEEPSTVGLLGPEGPGLGLGVASQHFSHRGLCVVEQRSSVTSSWTSGAWSPPCPPSNASCNTLHTRDWASPDPGGQGSLGESPGPAPPGQLHTLDTDLHSLAQIGGKSPVAGVGNGGSLWPRESPGTANGHSPEHTPPGPGPPGPCPTKRRLLPAGEAPDVSSEEEGPAPRRRRGSLGHPTAANSSDAKATPFWSHLLPGPKEPVLDPTDCGPMGRRLKGARRLKLSPLRSLRKGPGLLSPPSASPVPTPAVSRTLLGNFEESLLRGRFAPSGHIEGFTAEIGASGSYCPQHVTLPVTVTFFDVSEQNAPAPFLGIVDLNPLGRKGYSVPKVGTVQVTLFNPNQTVVKMFLVTFDFSDMPAAHMTFLRHRLFLVPVGEEGNANPTHRLLCYLLHLRFRSSRSGRLSLHGDIRLLFSRRSLELDTGLPYELQAVTEAPHNPRYSPLP
partner: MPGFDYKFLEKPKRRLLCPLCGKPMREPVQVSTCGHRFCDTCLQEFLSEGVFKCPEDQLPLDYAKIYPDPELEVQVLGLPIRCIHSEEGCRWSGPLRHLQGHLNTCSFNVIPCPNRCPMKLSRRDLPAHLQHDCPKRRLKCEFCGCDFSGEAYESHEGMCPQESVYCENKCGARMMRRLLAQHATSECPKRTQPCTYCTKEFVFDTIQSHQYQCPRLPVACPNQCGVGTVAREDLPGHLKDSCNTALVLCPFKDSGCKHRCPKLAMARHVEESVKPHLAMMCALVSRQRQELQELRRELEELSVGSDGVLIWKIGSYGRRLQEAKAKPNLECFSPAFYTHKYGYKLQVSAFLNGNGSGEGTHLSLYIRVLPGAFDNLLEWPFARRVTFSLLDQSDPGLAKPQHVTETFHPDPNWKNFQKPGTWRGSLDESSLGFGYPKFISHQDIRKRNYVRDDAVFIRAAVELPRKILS
B3: Atos homolog protein B (Homo sapiens), Q7L5A3 (parent)
chain: B2 chain
partner: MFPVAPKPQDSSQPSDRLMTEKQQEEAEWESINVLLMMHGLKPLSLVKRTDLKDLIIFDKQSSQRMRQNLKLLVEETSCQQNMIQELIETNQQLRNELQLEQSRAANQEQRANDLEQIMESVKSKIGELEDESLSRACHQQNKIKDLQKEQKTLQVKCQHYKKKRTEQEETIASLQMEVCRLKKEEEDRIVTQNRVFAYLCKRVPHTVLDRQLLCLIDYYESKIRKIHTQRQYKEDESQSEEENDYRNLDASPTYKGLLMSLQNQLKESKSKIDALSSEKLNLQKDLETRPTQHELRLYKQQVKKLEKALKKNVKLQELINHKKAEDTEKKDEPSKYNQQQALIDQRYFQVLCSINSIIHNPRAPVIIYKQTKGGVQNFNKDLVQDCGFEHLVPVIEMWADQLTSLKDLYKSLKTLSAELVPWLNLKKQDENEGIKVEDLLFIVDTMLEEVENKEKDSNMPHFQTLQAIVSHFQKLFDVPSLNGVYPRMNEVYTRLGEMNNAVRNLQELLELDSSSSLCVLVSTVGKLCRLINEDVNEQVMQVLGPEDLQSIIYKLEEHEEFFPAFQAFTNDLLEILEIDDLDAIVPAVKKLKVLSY
B4: Atos homolog protein B (Homo sapiens), Q7L5A3 (parent)
chain: B2 chain
partner: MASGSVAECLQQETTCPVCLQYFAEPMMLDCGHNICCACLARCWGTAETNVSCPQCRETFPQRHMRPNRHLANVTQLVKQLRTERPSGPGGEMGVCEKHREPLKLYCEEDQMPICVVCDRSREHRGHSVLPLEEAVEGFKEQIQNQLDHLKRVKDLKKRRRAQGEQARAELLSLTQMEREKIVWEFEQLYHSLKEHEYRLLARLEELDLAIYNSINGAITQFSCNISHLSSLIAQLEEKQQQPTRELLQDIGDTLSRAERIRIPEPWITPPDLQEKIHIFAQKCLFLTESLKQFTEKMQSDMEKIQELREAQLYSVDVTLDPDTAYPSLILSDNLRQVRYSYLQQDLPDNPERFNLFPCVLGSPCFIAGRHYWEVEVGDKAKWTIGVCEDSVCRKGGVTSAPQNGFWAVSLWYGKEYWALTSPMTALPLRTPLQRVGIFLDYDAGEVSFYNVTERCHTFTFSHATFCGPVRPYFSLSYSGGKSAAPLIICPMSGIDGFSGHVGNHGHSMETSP

Variants of: B1
Details: with mtmr8_human MTMR8, Q96EF0

Variant	effect of a mutation on the interaction
MEFAELIKTPRVDNVVLHRPFYPAVEGTLCLTGHHLILSSRQDNTEELWLLHSNIDAIDKRFVGSLGTIIIKCKDFRIIQLDIPGMEECLNIASSIEALSTLDSITLMYPFFYRPMFEVIEDGWHSFLPEQEFELYSSATSEWRLSYVNKEFAVCPSYPPIVTVPKSIDDEALRKVATFRHGGRFPVLSYYHKKNGMVIMRSGQPLTGTNGRRCKEDEKLINATLRAGKRGYIIDTRSLNVAQQTRAKGGGFEQEAHYPQWRRIHKSIERYHILQESLIKLVEACNDQTHNMDRWLSKLEASNWLTHIKEILTTACLAAQCIDREGASILIHGTEGTDSTLQVTSLAQIILEPRSRTISGFEALIEREWLQAGHPFQQRCAQSAYCNTKQKWEAPVFLLFLDCVWQILRQFPCSFEFNENFLIMLFEHAYASQFGTFLGNNESERCKLKLQQKTMSLWSWVNQPSELSKFTNPLFEANNLVIWPSVAPQSLPLWEGIFLRWNRSSKYLDEAYEEMVNIIEYNKELQAKVNILRRQLAELETEDGMQESP [R359S]	with no effect

Variants of: B2
Details: with traf4_human TRAF4, Q9BUZ4

Variant	effect of a mutation on the interaction
MRHVQAEPSPSSEPEAGPSQPPVRQGALQGGLLMGYSPAGGATSPGVYQVSIFSPPAGTSEPHRALKRQAPSTEGPRELKRGPGLGAREGLPPEEPSTVGLLGPEGPGLGLGVASQHFSHRGLCVVEQRSSVTSSWTSGAWSPPCPPSNASCNTLHTRDWASPDPGGQGSLGESPGPAPPGQLHTLDTDLHSLAQIGGKSPVAGVGNGGSLWPRESPGTANGHSPEHTPPGPGPPGPCPTKRRLLPAGEAPDVSSEEEGPAPRRRRGSLGHPTAANSSDAKATPFWSHLLPGPKEPVLDPTDCGPMGRRLKGARRLKLSPLRSLRKGPGLLSPPSASPVPTPAVSRTLLGNFEESLLRGRFAPSGHIEGFTAEIGASGSYYPQHVTLPVTVTFFDVSEQNAPAPFLGIVDLNPLGRKGYSVPKVGTVQVTLFNPNQTVVKMFLVTFDFSDMPAAHMTFLRHRLFLVPVGEEGNANPTHRLLCYLLHLRFRSSRSGRLSLHGDIRLLFSRRSLELDTGLPYELQAVTEAPHNPRYSPLP [C381Y]	disrupting interaction strength

Variants of: B3
Details: with cep70_human CEP70, Q8NHQ1

Variant	effect of a mutation on the interaction
MRHVQAEPSPSSEPEAGPSQPPVRQGALQGGLLMGYSPAGGATSPGVYQVSIFSPPAGTSEPHRALKRQAPSTEGPRELKRGPGLGAREGLPPEEPSTVGLLGPEGPGLGLGVASQHFSHRGLCVVEQRSSVTSSWTSGAWSPPCPPSNASCNTLHTRDWASPDPGGQGSLGESPGPAPPGQLHTLDTDLHSLAQIGGKSPVAGVGNGGSLWPRESPGTANGHSPEHTPPGPGPPGPCPTKRRLLPAGEAPDVSSEEEGPAPRRRRGSLGHPTAANSSDAKATPFWSHLLPGPKEPVLDPTDCGPMGRRLKGARRLKLSPLRSLRKGPGLLSPPSASPVPTPAVSRTLLGNFEESLLRGRFAPSGHIEGFTAEIGASGSYYPQHVTLPVTVTFFDVSEQNAPAPFLGIVDLNPLGRKGYSVPKVGTVQVTLFNPNQTVVKMFLVTFDFSDMPAAHMTFLRHRLFLVPVGEEGNANPTHRLLCYLLHLRFRSSRSGRLSLHGDIRLLFSRRSLELDTGLPYELQAVTEAPHNPRYSPLP [C381Y]	disrupting interaction strength

Variants of: B4
Details: with tri27_human TRIM27, P14373

Variant	effect of a mutation on the interaction
MRHVQAEPSPSSEPEAGPSQPPVRQGALQGGLLMGYSPAGGATSPGVYQVSIFSPPAGTSEPHRALKRQAPSTEGPRELKRGPGLGAREGLPPEEPSTVGLLGPEGPGLGLGVASQHFSHRGLCVVEQRSSVTSSWTSGAWSPPCPPSNASCNTLHTRDWASPDPGGQGSLGESPGPAPPGQLHTLDTDLHSLAQIGGKSPVAGVGNGGSLWPRESPGTANGHSPEHTPPGPGPPGPCPTKRRLLPAGEAPDVSSEEEGPAPRRRRGSLGHPTAANSSDAKATPFWSHLLPGPKEPVLDPTDCGPMGRRLKGARRLKLSPLRSLRKGPGLLSPPSASPVPTPAVSRTLLGNFEESLLRGRFAPSGHIEGFTAEIGASGSYYPQHVTLPVTVTFFDVSEQNAPAPFLGIVDLNPLGRKGYSVPKVGTVQVTLFNPNQTVVKMFLVTFDFSDMPAAHMTFLRHRLFLVPVGEEGNANPTHRLLCYLLHLRFRSSRSGRLSLHGDIRLLFSRRSLELDTGLPYELQAVTEAPHNPRYSPLP [C381Y]	disrupting interaction strength
